# Laboratory results from PMC7668070 (2020).
# Biological target: WT ACE2(740)-Fc (human, UniProt Q9BYF1 18-740)
# Experiment: BLI
binder,measurement,value
HCoV-NL63 spike RBD (domain or fragment) QHTDINFTATASFGGSCYVCKPHQVNISLNGNTSVCVRTSHFSIRYIYNRVKSGSPGDSSWHIYLKSGTCPFSFSKLNNFQKFKTICFSTVEVPGSCNFPLEATWHYTSYTIVGALYVTWSEGNSITGVPYPVSGI,Kd,22 nM
